The series in a line: protein stability index of a GFP-peptide fusion (yeast GPS) (PSI 1-4); higher = more stable; sorted into four equal gates, so the index is relative within each strain. The procedure, abridged: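 Each library plasmid carries Cherry plus GFP with a tiled 17-residue yeast protein peptide fused downstream, and the pooled library was carried in yeast. Mid-log cultures in leucine-free medium were sorted into four equal gates by GFP/Cherry ratio. Reads from Illumina sequencing of PCR-amplified plasmids from each gate were assigned to strains by barcodes. Per peptide, the protein stability index was computed as the summed products of gate read frequency and gate number.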

± gives the uncertainty stated by the source.

As for MKANPALYVLRERIRKG [PRP8], the protein stability index (doa10∆) was 2.47 ± 0.23, the protein stability index (pdr5∆) turned out to be 2.87 ± 0.11, the protein stability index (san1∆) was 2.66 ± 0.12 and the protein stability index (ubr1∆) was found to be 2.41 ± 0.29.
Sequence MKATSNTLEEFEHGRTP [FAS2] gave a protein stability index (doa10∆) of 2.8 ± 0.08, a protein stability index (pdr5∆) of 2.56 ± 0.16, a protein stability index (san1∆) of 1.38 ± 0.15 and a protein stability index (ubr1∆) of 3.66 ± 0.12.
MKLNILDERFASRVALN [IRR1]: the protein stability index stood at 1.54 ± 0.051 (doa10∆), 2.31 ± 0.062 (pdr5∆), 2.17 ± 0.11 (san1∆) and 2.03 ± 0.054 (ubr1∆).
For MKLTDLLSLINSTHLLP [SNF12], the protein stability index was 2.56 ± 0.052 (doa10∆), 2.57 ± 0.04 (pdr5∆), 2.94 ± 0.05 (san1∆) and 2.58 ± 0.036 (ubr1∆).
The matching figures for MKNPDVEFCGYSIPHPS [RPC19]: 2.81 ± 0.082, 3.11 ± 0.064, 2.94 ± 0.049 and 3.04 ± 0.085.
The matching figures for MKTNVHTQANEPNSAKK [RGR1]: 3.02 ± 0.11, 3.14 ± 0.089, 3.06 ± 0.086 and 3.24 ± 0.11.
The matching figures for MKTVQSPMGAQPSYNSA [GAL11]: 3.37 ± 0.26, 2.91 ± 0.1, 2.56 ± 0.21 and 2.65 ± 0.081.
In the case of MKYDIFAKFIHHIHHFE [IRR1], the protein stability index (doa10∆) is 2.03 ± 0.079, the protein stability index (pdr5∆) turned out to be 2.54 ± 0.055, the protein stability index (san1∆) came to 2.46 ± 0.065 and the protein stability index (ubr1∆) is 2.74 ± 0.05.
MLAAQDVAAKCKEVGIT [RPS14A] displayed a protein stability index (doa10∆) of 2.38 ± 0.057, a protein stability index (pdr5∆) of 2.38 ± 0.061, a protein stability index (san1∆) of 2.07 ± 0.068 and a protein stability index (ubr1∆) of 2.04 ± 0.041.
Consider MLDKLMVTSIRSTPNYI [MED6], for which the protein stability index is 2.4 ± 0.064 (doa10∆), 2.52 ± 0.061 (pdr5∆), 2.43 ± 0.098 (san1∆) and 2.66 ± 0.05 (ubr1∆).
The matching figures for MLHKVLENKADPLVSLM [RPT6]: 2.28 ± 0.08, 2.15 ± 0.063, 2.71 ± 0.058 and 2.23 ± 0.066.
In the case of MLKPNIIFQQLLFWTDP [YCG1], the protein stability index is, setting by setting: (doa10∆) 2.42 ± 0.099; (pdr5∆) 2.28 ± 0.076; (san1∆) 1.21 ± 0.093; (ubr1∆) 1.68 ± 0.12.
As to MLKRFFPGVKGLVHDLC [SMC1], the protein stability index amounted to 1.95 ± 0.14 (san1∆) and 2.42 ± 0.17 (ubr1∆).
As to MLLCVSYFLQERYFDCC [PCI8], the protein stability index by setting is: (doa10∆) 1.19 ± 0.091; (pdr5∆) 1.26 ± 0.058; (san1∆) 1.55 ± 0.1; (ubr1∆) 1.3 ± 0.092.
On to MLMPKEDRNKIHQYLFQ [RPS10A], for which the protein stability index is, setting by setting: (doa10∆) 2.27 ± 0.057; (pdr5∆) 2.58 ± 0.057; (san1∆) 2.49 ± 0.079; (ubr1∆) 2.71 ± 0.047.
The like results for MLQISDDNEMTRDDLLT [RRI2] were, in that order, 2.93 ± 0.1, 3.27 ± 0.1, 3.17 ± 0.038 and 3.1 ± 0.056.
The like results for MLQMKGKLLRNYTQNID [SIR2] were, in that order, 2.91 ± 0.076, 2.36 ± 0.11, 2.78 ± 0.086 and 2.02 ± 0.058.
For the sequence MLSKTKVYYFQGGNNEL [RPL30], the protein stability index came to 2.87 ± 0.15 (doa10∆), 3.17 ± 0.26 (pdr5∆), 2.99 ± 0.14 (san1∆) and 3.4 ± 0.25 (ubr1∆).
Take MMTGAEQDPYSNASQMG [RPB3]: the protein stability index came out at 2.68 ± 0.14 (doa10∆), 2.44 ± 0.13 (pdr5∆), 2.21 ± 0.2 (san1∆) and 2.92 ± 0.1 (ubr1∆).
In the case of MNAGGRNVTIQLENADT [RPN2], the protein stability index runs as follows: (pdr5∆) 2.44 ± 0.18; (san1∆) 1.62 ± 0.29.
Consider MNERDWRILKEDYAIVT [PRP28], for which the protein stability index by setting is: (doa10∆) 3.42 ± 0.22; (pdr5∆) 3.16 ± 0.23.
For the sequence MNIPQRQFSNEEVNRCY [SNF2], the protein stability index reads like this: (doa10∆) 2.44 ± 0.1; (pdr5∆) 3 ± 0.14; (san1∆) 2.96 ± 0.26; (ubr1∆) 3 ± 0.065.
The matching figures for MNLDFDIEEGPITSKSW [MCD1]: 2.85 ± 0.15, 3.16 ± 0.093, 3.17 ± 0.072 and 3.49 ± 0.18.
MNLKKELQGYIELSVPD [SRB5]: the protein stability index was 2.6 ± 0.21 (doa10∆), 3.26 ± 0.14 (pdr5∆), 3.15 ± 0.075 (san1∆) and 2.83 ± 0.1 (ubr1∆).
Take MPDMNEMMKMMQDPQMQ [SRP54]: the protein stability index by setting is: (doa10∆) 3.22 ± 0.19; (pdr5∆) 3.45 ± 0.21; (san1∆) 3.5 ± 0.083; (ubr1∆) 3.33 ± 0.084.
Take MPFNDQGIVPDIIMNPH [RET1]: the protein stability index turned out to be 2.71 ± 0.075 (doa10∆), 2.92 ± 0.059 (pdr5∆), 2.87 ± 0.052 (san1∆) and 3.09 ± 0.042 (ubr1∆).
